Measurements reported in patent US20240285749A1.

Target: HA ectodomain trimer (UniProt Q289M7)
Assay: Octet

Row | Substance | Kd (Fab) [nM] | Kd (scFv) [nM]
1 | CR6261 | 0.39 | –
2 | F10 | – | 0.063
